We go through eight molecules from patent US20170066831A1 (Janssen / Centocor, published 2017).

What is called Kd is the free concentration of one partner at which half of the binding sites on the other are occupied at equilibrium, for simple one-to-one binding. A high value points to a looser complex. The koff is the first-order rate constant of dissociation. Lower therefore signals slow dissociation. Usually kon stands for the rate constant with which the complex forms. A high value points to faster complex formation. For orientation: IC50 means the concentration that inhibits the measured activity by half. A low value points to inhibition by little substance.

B1: ST2M48 (antibody, V domains shown)
VH: EVQLVQSGAEVKKPGESLKISCKGSGYSFTSYWIGWVRQMPGKGLEWMGIIYPGDSYTRYSPSFQGQVTISADKSISTAYLQWSSLKASDTAMYYCARLSGRFDYWGQGTLVTVSS
VL: EIVLTQSPATLSLSPGERATLSCRASQSVRDALAWYQQKPGQAPRLLIYFASNRATGIPARFSGSGSGTDFTLTISSLEPEDFAVYYCQQFNTWPITFGQGTKVEIK
notes: Phage-derived Fab converted to IgG
B2: ST2M49 (antibody, V domains shown)
VH: B1 VH with L99I, S100G, R102M
VL: B1 VL with R30A, D31N, F50K, F91Y, N92Y, T93G
notes: as for B1
B3: ST2M51 (antibody, V domains shown)
VH: QVQLVQSGAEVKKPGSSVKVSCKASGGTFSSYAISWVRQAPGQGLEWMGGIIPIFGTANYAQKFQGRVTITADESTSTAYMELSSLRSEDTAVYYCARDTPQLDYWGQGTLVTVSS
VL: not shown
notes: as for B1
B4: STLM62 (antibody, human IgG2, V domains shown)
VH: EVQLQQSVAELVRPGASVKLSCTASAFNIKDDYMHWVKQRPEQGLEWIGRIDPAIGNTEYAPKFQDKATMTADTSSNTAYLQLSSLTSEDTAVYYCALGDFYAMDYWGQGTSVTVSS
VL: ETTVTQSPASLSVATGEKVTIRCITNTDIDDVIHWYQQKPGEPPKLLISEGNTLRPGVPSRFSSSGYGTDFVFTIENTLSEDVADYYCLQSDNMLTFGAGTKLELK
notes: Mouse hybridoma C2494 cloned into human IgG2 background (STLM62); also called C2494
B5: C2494 Fab with D101aA (Chothia) substitution in VH (Fab, V domains shown)
VH: B4 VH with D105A
VL: B4 VL
B6: C2521 (antibody, V domains shown)
VH: QIQLQQSGPELVRPGTSVKISCKASGYTFLTYWMNWVKQRPGQGLEWIGQIFPASGSTYYNEMFKDKATLTVDTSSSTAYMQLSSLTSEDTAVYFCARSENIYYINFQYYFAYWGQGTTLTVSS
VL: ILLTQSPAILSVSPGERVSFSCRASQNIGTRMHWYQQRTNGSPRLLIKYASESISGIPSRFSGSGSGTDFTLTISSVESEDIADYYCQQSNTWPFTFGSGTKLEIK
notes: Mouse hybridoma antibody; also called C2521A
B7: C2519 (antibody, V domains shown)
VH: EFQLQQSGPELVKPGASVKISCKASGYSFTDYNMNWVKQSHGKSLEWIGNINPYYGSTTYNQKFKGKATLTVDKSSNTAYMHLNSLTSEDSAVYYCAREGDTYLAWFAYWGQGTLVTVSA
VL: DVLMTQTPLSLPVSLGDQASISCRSSQSIVYSNGNTYLEWYLQKPGQSPKLLIYKVSNRFSGVPDRFSGSGSGTDFTLKISRVEAEDLGVYYCFQGSHVPPTFGGGTKLEIK
notes: Mouse hybridoma antibody; also called C2519A
B8: STLM15 (antibody, human IgG2, V domains shown)
VH: EVQLQESGPGLVKPSQSLSLTCTVTGFSITSDYAWNWIRQFPGSKLEWMGFISYSGDTSFNPSLKSRISVTRDTSKNQFFLQLNSVTTEDTATYYCASYDGYSFDYWGQGTTLTVSS
VL: DIVLTQSPASLAISLGQRATISCRASKSVSTSGSSYMFWYQQKPGQPPKLLIYLASNLESGVPARFSGSGSGTDFTLNIHPVEEEDAAAYYCQHSREIPYTFGGGTKLEIK
notes: Mouse hybridoma C2244 cloned into human IgG2 background (STLM15); also called C2244

Positions count from the first letter of the chain named. Numbers in names are those of the source.

The first assay has as its target T1, mouse ST2L extracellular domain (mouse, UniProt P14719 28-326).
T1 construct: also called mouse ST2L-ECD; muST2L-ECD
T1 sequence: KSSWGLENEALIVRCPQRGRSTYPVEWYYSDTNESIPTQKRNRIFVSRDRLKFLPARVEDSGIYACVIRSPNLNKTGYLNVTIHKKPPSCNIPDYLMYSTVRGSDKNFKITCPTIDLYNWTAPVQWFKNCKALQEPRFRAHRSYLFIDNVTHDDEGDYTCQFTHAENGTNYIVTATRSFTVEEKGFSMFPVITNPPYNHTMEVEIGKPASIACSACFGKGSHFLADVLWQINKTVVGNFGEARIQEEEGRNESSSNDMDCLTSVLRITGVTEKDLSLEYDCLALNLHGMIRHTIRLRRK
Description: domain binding assay. As for the experimental part:
Antibody binding to ST2L domain I, II and III was determined using standard capture ELISA assay using electrochemiluminescent detection format (Meso-Scale Discovery (MSD) technology). 10 μg/mL of each antibody was coated onto each well of an MSD HighBind plate (5 μL/well) for 2 hr at room temperature. […] The plate was covered with aluminum foil and incubated for 1 hr at room temperature with gentle shaking. The plate was then washed 3 times with HEPES wash buffer. MSD read buffer (150 μl) was added to each well, and the plate was then read using an MSD Sector Imager 6000.
Turning to B1, the binding result was “binds”.

With B2, the binding result is recorded as “binds”.

As to B3, the binding result is “binds”.

In a further assay the target is T2, human ST2L, full length, on cells (human, UniProt Q01638 19-556).
T2 sequence: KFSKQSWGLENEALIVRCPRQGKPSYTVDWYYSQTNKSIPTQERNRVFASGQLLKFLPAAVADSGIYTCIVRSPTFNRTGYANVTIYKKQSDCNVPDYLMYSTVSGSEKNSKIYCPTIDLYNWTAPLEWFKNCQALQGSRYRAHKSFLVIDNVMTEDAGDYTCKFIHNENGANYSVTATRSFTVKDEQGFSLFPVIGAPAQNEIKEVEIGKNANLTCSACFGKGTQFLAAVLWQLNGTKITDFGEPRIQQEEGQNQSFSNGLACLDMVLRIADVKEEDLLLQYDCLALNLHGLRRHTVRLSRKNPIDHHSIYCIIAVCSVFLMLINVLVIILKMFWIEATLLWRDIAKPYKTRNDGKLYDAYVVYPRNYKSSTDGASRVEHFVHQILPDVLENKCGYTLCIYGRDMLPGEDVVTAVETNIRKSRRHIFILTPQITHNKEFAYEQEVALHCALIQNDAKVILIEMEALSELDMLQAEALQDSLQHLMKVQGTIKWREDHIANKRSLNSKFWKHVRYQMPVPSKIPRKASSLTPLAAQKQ
Description: cell-based or functional assay.
As for B4, the “RGA IC50” value is 0.11 µg/mL.

The next assay has as its target T3, human ST2L extracellular domain with C-terminal His6 tag (human, UniProt Q01638 19-328).
T3 construct: also called huST2L-ECD; ST2L-ECD
T3 sequence: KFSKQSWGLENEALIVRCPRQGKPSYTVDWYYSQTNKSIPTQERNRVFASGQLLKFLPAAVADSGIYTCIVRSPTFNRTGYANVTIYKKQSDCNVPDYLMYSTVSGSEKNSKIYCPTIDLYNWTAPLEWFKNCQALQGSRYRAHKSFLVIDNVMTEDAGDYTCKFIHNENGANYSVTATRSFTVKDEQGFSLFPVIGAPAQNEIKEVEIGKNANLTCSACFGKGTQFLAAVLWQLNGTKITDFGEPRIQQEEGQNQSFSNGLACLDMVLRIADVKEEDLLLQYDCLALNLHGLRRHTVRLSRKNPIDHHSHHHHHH
Description: Fab binding to ST2L, method not detailed.
In the case of B5, the “fold decrease of koff against C2494” value was around 4 fold.

In a further assay the target is T3, human ST2L extracellular domain with …. Briefly: SPR, mAb captured, ST2L-ECD in solution. Background: SPR reads the build-up and loss of mass on a sensor chip optically.
In turn, B4 showed a Kd of 28 pM, a koff of 0.000119 s⁻¹ and a kon of 4.26e+06 M⁻¹ s⁻¹.

B1 returned an equilibrium dissociation constant (Kd) of 56 pM, a koff of 7.33e-05 s⁻¹ and a kon of 1.32e+06 M⁻¹ s⁻¹.

The molecule B2 gave a dissociation constant (Kd) of 101 pM, a koff of 0.000161 s⁻¹ and a kon of 1.59e+06 M⁻¹ s⁻¹.

Take B6: binding was characterised by a dissociation constant (Kd) of 79 pM, the koff worked out at 4.9e-05 s⁻¹ and the kon worked out at 618000 M⁻¹ s⁻¹.

The molecule B3 came in with a Kd of 38 pM, a koff of 4.87e-05 s⁻¹ and a kon of 1.29e+06 M⁻¹ s⁻¹.

For B7, the affinity, expressed as Kd, was 180 pM; the koff was 8.7e-05 s⁻¹; the kon is 483000 M⁻¹ s⁻¹.

With B8, the Kd is 42 pM, the koff stood at 4.25e-05 s⁻¹ and the kon turned out to be 1.02e+06 M⁻¹ s⁻¹.

For a further assay, the target named is T4, cynomolgus (Macaca fascicularis) ST2L extracellular domain with C-terminal His6 tag (Macaca fascicularis (cynomolgus), UniProt Q01638 19-321 (human entry)).
T4 construct: also called cyno ST2L-ECD; cynoST2L-ECD
T4 chain: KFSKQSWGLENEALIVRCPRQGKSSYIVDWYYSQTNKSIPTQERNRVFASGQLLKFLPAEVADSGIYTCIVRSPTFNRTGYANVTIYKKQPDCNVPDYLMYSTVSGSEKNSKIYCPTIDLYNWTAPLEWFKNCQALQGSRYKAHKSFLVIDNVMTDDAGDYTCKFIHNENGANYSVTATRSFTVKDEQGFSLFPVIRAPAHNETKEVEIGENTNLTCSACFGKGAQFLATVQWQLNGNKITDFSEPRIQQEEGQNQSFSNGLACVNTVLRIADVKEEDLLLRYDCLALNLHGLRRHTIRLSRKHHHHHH
Briefly: SPR, mAb captured, ST2L-ECD in solution.
As to B4, binding was put at a Kd of 12 pM, the koff was 0.000539 s⁻¹ and the kon amounted to 4.51e+07 M⁻¹ s⁻¹.

Molecule B1 displayed a Kd of 257 pM, a koff of 0.00265 s⁻¹ and a kon of 1.03e+07 M⁻¹ s⁻¹.

Take B2: the Kd was 266 pM, the koff came to 0.0124 s⁻¹ and the kon came to 4.66e+07 M⁻¹ s⁻¹.

Regarding B6, the Kd is 3710 pM, the koff stood at 0.00166 s⁻¹ and the kon is 447000 M⁻¹ s⁻¹.

As for B3, the Kd was 76 pM, the koff turned out to be 0.00336 s⁻¹ and the kon came to 4.42e+07 M⁻¹ s⁻¹.

With B7, the affinity, expressed as Kd, was 44800 pM; the koff was determined as 0.0032 s⁻¹; the kon stood at 71400 M⁻¹ s⁻¹.

In the case of B8, the Kd was found to be 11 pM, the koff came out at 5.3e-05 s⁻¹ and the kon stood at 4.81e+06 M⁻¹ s⁻¹.

A further assay addresses T3, human ST2L extracellular domain with …. Description: ProteOn SPR, mAb captured, ST2L-ECD in solution. As for the experimental part: (§1) The affinities were analyzed by ProteOn. The experiments were performed at 25° C. using ProteOn's PBS-T-E buffer (PBS, 0.005% P20 and 3 mM EDTA) as running buffer. […] Mab capture was followed by injection of ST2L-ECD from 0.024-15 nM (5-fold dilutions) for 4 min (200 μL at 50 μL/min). The dissociation was monitored for 30 minutes for all reaction. Regeneration was performed using two 15 sec pulses of 10 mM glycine pH1.5. The data was fitted to a 1:1 with baseline drift model.
(§2) Association rates for the samples are fast, the langmuir with mass transfer model was used for curve fitting and estimation of Affinity. All of the samples had faster off rates than the parental clone and control Mab. The difference in off rate was the primary contributor to the lower affinity of the HFA variants when compared to the parent antibody.
With B4, binding was put at a Kd of 8.67 pM, the off-rate (koff) turned out to be 0.000159 s⁻¹ and the kon was 1.84e+07 M⁻¹ s⁻¹.

The next assay has as its target T4, cynomolgus (Macaca fascicularis) ST2L …. Description: ProteOn SPR, mAb captured, ST2L-ECD in solution. Here is the method:
as §1, §2
With B4, binding was characterised by a dissociation constant (Kd) of 12.3 pM, the koff turned out to be 0.000457 s⁻¹ and the kon turned out to be 3.84e+07 M⁻¹ s⁻¹.

For another assay, the target named is T3, human ST2L extracellular domain with …. Briefly: RLB ELISA: biotinylated IL-33 on coated huST2L-ECD, antibody titrated; tested as a hybridoma. (In general: An ELISA detects its analyte on a solid surface through an enzyme-linked reagent.)
As to B4, the IC50 was 0.7 µg/mL.

The next assay shares this target. Description: MSD competition on coated ST2L-ECD; 30 nM sulfo-tag labeled C2244 Fab displaced by unlabeled competitor. Here is the method:
Competition binding assays were performed to evaluate different binding epitope groups for anti-ST2L mAbs. 5 μl (10 μg/ml) of ST2L-ECD protein was coated on MSD HighBind plate (Meso Scale Discovery, Gaithersburg, Md.) per well for 2 hr at room temperature. One-hundred and fifty microliters of 5% MSD Blocker A buffer (Meso Scale Discovery, Gaithersburg, Md.) was added to each well and incubated for 2 hr at room temperature. Plates were washed three times with 0.1 M HEPES buffer, pH 7.4, followed by the addition of the mixture of the MSD fluorescence dye (sulfo tag, NHS ester) labeled individual anti-ST2L antibody with different competitors. Labeled antibody, 10 or 30 nM, was incubated with increasing concentrations of competitor antibodies, from 1 nM to 2 or 5 μM, and then added to the designated wells in a volume of 25 μL mixture. After 2-hour incubation with gentle shaking at room temperature, plates were washed 3 times with 0.1M HEPES buffer (pH 7.4). MSD Read Buffer T was diluted with distilled water (4-fold) and dispensed at a volume of 150 μL/well and analyzed with a SECTOR Imager 6000.
For the molecule B4, the “IC50 (read off the curve)” value is around 100000 pM.

On to B8, for which the “IC50 (read off the curve)” value was around 90000 pM.
